Biological target: Methanocaldococcus jannaschii Bud32 (Methanocaldococcus jannaschii) (UniProt Q58530)
Sequence (Q58530 whole entry): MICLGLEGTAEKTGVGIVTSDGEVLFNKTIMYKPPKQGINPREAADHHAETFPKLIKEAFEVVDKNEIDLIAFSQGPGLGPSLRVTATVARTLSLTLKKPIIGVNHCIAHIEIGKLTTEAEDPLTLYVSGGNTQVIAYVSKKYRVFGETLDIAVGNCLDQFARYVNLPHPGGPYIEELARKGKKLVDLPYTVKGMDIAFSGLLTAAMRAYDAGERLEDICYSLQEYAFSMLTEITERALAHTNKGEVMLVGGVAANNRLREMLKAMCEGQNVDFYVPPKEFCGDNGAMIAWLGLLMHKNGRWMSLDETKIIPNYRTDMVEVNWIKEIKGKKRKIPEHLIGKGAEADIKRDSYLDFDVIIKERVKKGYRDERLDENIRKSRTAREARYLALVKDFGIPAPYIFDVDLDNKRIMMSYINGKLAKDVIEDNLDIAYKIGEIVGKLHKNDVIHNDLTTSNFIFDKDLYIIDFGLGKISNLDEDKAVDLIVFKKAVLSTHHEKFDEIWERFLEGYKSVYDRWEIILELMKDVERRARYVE

ATPase activity of mjBud32 (ADP Glo assay), potentiation by mjCgi121: 10 fold
B1: Methanocaldococcus jannaschii Cgi121 (natural protein)
chain: MIIRGIRGARINNEIFNLGLKFQILNADVVATKKHVLHAINQAKTKKPIAKSFWMEILVRASGQRQIHEAIKIIGAKDGNVCLICEDEETFRKIYELIGGEIDDSVLEINEDKERLIREIFKIRGFGNVVERVLEKIALIELKKE
